Test results taken from patent US20110166203A1, “ANTI-HEPATITIS C VIRUS COMPOSITION” (OSAKA UNIVERSITY, priority 2008, published 2011).

What was measured:
PA28γ gene = assay: Selection of RNA interference target sequence by PA28γ expression suppressing effect; assay type: cell-based, human; details: among four target sequences from the open reading frame of the PA28γ gene
Source text: A DNA fragment that encodes a short hairpin RNA for knocking down the human PA28γ gene by RNA interference was designed according to the following procedure.
The following four sequences were selected as the target sequences from the open reading frame of the PA28γ gene.
The sequence of SEQ ID NO: 4 corresponds to positions 16 to 36 of the PA28γ coding region represented by SEQ ID NO: 5.

PA28γ = PA28γ detection by western blotting in shRNA-transfected Huh7 OK1 clones; assay type: cell-based, human; details: clones C5 and C7 vs Huh7 Ok1 cells and control shRNA cells
Protocol: The DNA fragment was incorporated between the BamHI and Hind III sites of a pSilencer 2.1 U6-hygro vector (Ambion; Austin, Tex.), and introduced by lipofection to Huh7 OK1 cells sensitive to the hepatitis C virus JFH1 strain. The cells were then cultured for 1 week in a 10% fetal bovine serum Dulbecco's modified Eagle's medium supplemented with 0.1 mg/mL hygromycin. The cells were cloned by limiting dilution, and two clones, named C5 and C7, with low PA28γ expression levels were selected by western blotting.
Separately, a commercially available pSilencer 2.1-U6 hygro negative control vector (Ambion) having no complementarity to human PA28γ gene was treated by the same procedure to establish single clones that had the same PA28γ expression level as the parental strain (control cells; hereinafter, also referred to as “control shRNA”).
The Huh7 Ok1 cells, the control cells, and the PA28γ knockdown cells C5 and C7 were lysed, and the lysate was subjected to SDS-polyacrylamide gel electrophoresis for the detection of PA28γ and β-actin by western blotting using anti-PA28γ antibody (Affiniti) and anti-actin antibody (Sigma Aldrich Japan).

hepatitis C virus JFH1 = assay: Virus titer of culture supernatant after JFH1 infection of PA28γ constant knockdown cells; assay type: cell-based; details: empty plasmid transfected; JFH1 MOI 0.024; 10 days culture; knockdown cells vs control cells
Protocol: The control cells (control shRNA) and PA28γknockdown cells C5 and C7 were transfected with pEFFLAGGspGBK or pEFFLAGGsPA28gammaSI plasmid. The next day, the medium was replaced with 10% fetal bovine serum Dulbecco's modified Eagle's medium supplemented with 3 μg/mL puromycin, and the cells were further cultured for 24 hours. The surviving cells were then inoculated in a 12-well plate (2.5×10^4 cells/well), and infected with hepatitis C virus JFH1 at an MOI of 0.024.
The JFH1 gene-containing plasmid pJFH1 was cut with XbaI enzyme, blunted with Mung Bean nuclease, and virus RNA was synthesized using a MEGAscript T7 kit (Ambion). The virus RNA was transfected into Huh7 OK1 cells by electroporation under the conditions 260 V and 960 μF. […] Using Huh7 OK1, the virus titer (ffu/mL) of the culture supernatant was measured according to the method of Wakita et al. (Nat. Med. 11:791-796, 2005), as follows. The Huh7 OK1 cells were infected with the culture supernatant to be measured at 37° C. for 3 hours. […]
The rabbit anti-NS5A antibody prepared by immunizing the peptide from the amino acid residues 409 to 422 of NS5A according to the method described in J. Virol. 79:13473-13482, 2005 was allowed to react with Alexa Fluor® 488-anti-rabbit IgG antibody (Molecular Probe), and the fluorescent cell foci were counted to calculate the virus titer.

HCV replicon RNA = assay: HCV replicon Renilla luciferase replication assay in control and PA28γ knockdown cells; assay type: cell-based, hepatitis C virus; details: knockdown cells C5 (KD5) vs control cells (Cntrl5), 24, 48, 96 h normalized to 4 h
Protocol: Virus replication by replicon was evaluated in the same manner except that the control cells and knockdown cells prepared in Section 1 above were used, as described in Krieger et al. (Krieger et al., J. Virol., 75:4614-4624, 2001).
A cDNA encoding Renilla luciferase was introduced between AscI and PmeI of a plasmid pFK-1389 neo/NS3-3′/NK5.1, instead of a neogene. The resulting plasmid pFK-1389 hRL/NS3-3/NK5.1 was cleaved at ScaI, and […] in vitro using a MEGAscript T7 kit (Ambion). A suspension of Huh7 cells (10×10^6 cells/mL) was prepared, and 400 μl of the suspension was mixed with 10 μg of in vitro transcription RNA. This was followed by electroporation performed under the conditions 270 V and 960 μF using a Gene Pulser™ (Bio-Rad). The electroporated cells were suspended in 25-ml medium, and inoculated in a 12-well culture plate (1 ml/well). Then, luciferase activities at hour 4, 24, 48, and 96 post infection were measured using a Renilla Luciferase assay system (Promega).
The synthesized HCV replicon RNA, and the HCV replicon GND RNA with the inactivated RNA polymerase activity were transfected into control shRNA cells and PA28γ knockdown cells C5, and luciferase activity was measured.
The measured values in each combination were normalized by dividing the values after 24, 48, and 96 hours by the value after 4 hours.

B1: shRNA against PA28γ: short hairpin RNA against target sequence SEQ ID NO: 4 (…), encoded by DNA fragment SEQ ID NO: 6 in pSilencer 2.1 U6-hygro vector (nucleic acid)
DNA: GGATCCGGTGGATCAGGAAGTGAAGTTCAAGAGACTTCACTTCCTGATCCACCTTTTTTGGAAAAGCTT
modifications: the letters are possibly those of the target site
What does the source list for B1?
PA28γ expression suppressing effect (PA28γ gene): remarkable expression suppressing effect; PA28γ expression level (PA28γ): lower PA28γ expression levels; virus production (virus titer) (hepatitis C virus JFH1): significantly lower; luciferase value (virus replication by replicon) (HCV replicon RNA): no difference in luciferase value
